Test results taken from the DeepSol protein solubility set.

Assay: soluble on expression in E. coli; label from the status in PepcDB or PDB records
With “MGSDKIHHHHHHMPVLNSVANTVPTRFRFDLLTHDDNDRLQSDSLCPVGFTSLGREPVRLKFGGTKIRDFCVWKTESATGFEARPRVVSDLVTIRFPISGGLARKDGREEVNIDRGQGVIIPFRDMEYERTSRSASMISCTIASVSIFQKMQALYGEERSTFASFVPVVDVNIPQIRIFRTALLRLHDNLQQHGDHNPLSFPIVEELLVFHLLSCWPTTAAVRPTADQVNNRVLRNALDYIEANLASPITVSEIAFAAGVSVRSLQIAFRESKGITPVQYIIECRLDRVHDALKRGFAPGYISQIANAWGFQHHADFSRRYRKRFGETPKQTRTR” the “soluble on expression in E. coli” value was “not soluble”. In the case of “MGSDKIHHHHHHMDKYLSANSLEGVIDNEFSMPAPRWLNTYPAGPYRFINREFFIIAYETDPDLLQAILPPDMELLEPVVKFEFIRMPDSTGFGDYTESGQVVPVRYKGEEGGFTISMFLDCHAPIAGGREIWGFPKKLAKPKLFVEEDTLIGILKYGSIDIAIATMGYKHRPLDAEKVLESVKKPVFLLKNIPNVDGTPLVNQLTKTYLTDITVKGAWTGPGSLELHPHALAPISNLYIKKIVSVSHFITDLTLPYGKVVADYLA”, the “soluble on expression in E. coli” value is reported as “not soluble”. For “GDSTILKVLQSNIQHVQLYENPVLQEKALTCIPVSELKRKAQEKLFRARKLDKGTNVSDEDFLLLELLHWFKEEFFRWVNNIVCSKCGGETRSRDEALLPNDDELKWGAKNVENHYCDACQLSNRFPRYNNPEKLLETRCGRCGEWANCFTLCCRALGFEARYVWDYTDHVWTEVYSPSQQRWLHCDACEDVCDKPLLYEIGWGKKLSYIIAFSKDEVVDVTWRYSCKHDEVMSRRTKVKEELLRETINGLNKQRQLSLSESRRKELLQRIIVELVEFISPKTPRPGLEHHHHHH”, the “soluble on expression in E. coli” value was “soluble”. For “MGSDKIHHHHHHMNFREEFKLLLRARYPLIYIPTYEEERVEAAIREEATNQGNRPVYTWDFVDGYQGNPNDVGFGRRNPLQALEFIEKLPASAPAVLILRDYHRFLDDVAIARKLRNLSRLLKSQPKNIVLLSPRIAIPDDLTEVLTVVEFPLPAAAEIKTEVERLLQSTGNSLSGKVLDDLVLSCQGLSMERIRRVLAKAIATHGELQPEDVDLVLEEKRQTIRQTQILDFYPATEQISDIGGLDNLKDWLIRRGGSFTDKARQYGLPHPRGLMLVGIQGTGKSLTAKAIAHHWHLPLLRLDVGRLFGGLVGESESRTRQMIQVAEALAPCILWIDEIDKAFAGLGSKGDAGTASRVFGTFINWLAEKSSPVFVVATANDIQALPPEMLRKGRFDEIFFVGLPTQEERKAIYDVHLSRLRPHNLKSYDIERLAYETPDFSGAEIEQTLIEAMHIGFSQNRDFATDDILEAASQIVPLARTAVEQIQQLQEWAAAGRARLASKHNPLSERLRRTT”, the “soluble on expression in E. coli” value was “not soluble”. In the case of “SEEITDGVNNMNLATDSQKKNRIQVSNTKKPLFFYVNLAKRYMQQYNDVELSALGMAIATVVTVTEILKNNGFAVEKKIMTSIVDIKDDARGRPVQKAKIEITLVKSEKFDELMAAANEEKEDAETQVQN”, the “soluble on expression in E. coli” value is reported as “soluble”. In the case of “MFVVPRRLSSFLSLVHEYRHLARRSYVMETPSIDIQNIRAKYLNSHDPYLLESKLPTTSPFELFDIWFRNVASQSDLTFEEINAVSLSTVGKDLRPSSRMVLLKAYTPTGFSFYTNYTSRKGNQLEENPNAAMLFYWPKVNRQIRVEGVVEKLPDEMAVAYWNSRPVASRIGSKSSDQSKVVPDREFLESKKVALTELSVREGAQAITKPESWGGYHLIPRYFEFWQGQSDRLHDRIVFERDVDVWLLKRLSP”, the “soluble on expression in E. coli” value is reported as “not soluble”. For “MLEIVSEELRHYQEQKLIEYRNKNQLAPKGGIVFAGDSLIEFFPLKKAFGSCLPIINRGIAGIDSQWLLRHFSVQITDLEPKHIFLLIGCNDIGLGYDKCHIVKTIVELISQIRSHCVYSQIYLLSLLPVSNNPRYQKTVKIRTNAMIDAINKDLAMIPTVEFINLNTCLKDEKGGLSDENTLDGLHLNFPAYAKLAEIIKSYI”, the “soluble on expression in E. coli” value was “not soluble”. In the case of “MTSLLGGNFTEALHTVLSNQLNVMSQKTSDSEAPTTFSSSSSSDSPPYDPMSLVSAGISDQNGLMDMFKDGLFATLVPPTDVANSDTASSESPEPAAQSHEAAEETGGTEEQQAAALSLIQSFGTPIPSKFEDIESQFFSEATIRDLMPVLASVQGSPPHNQNQLSFGSTSSPSAWARNAGRKKSHPVWDFFKDMKDSTGAGGVICLHCSWSGDDRSPNNLRTHLKKFHSDDGIFNRFSEKLAKMARRKQQESTLVIDPSHSKDDSAFFEGSSGSDAPSTIDTTQLMALLEQSAAAAAAAAAASSSENPITSSLLKKDRTTTTTTEKELSPLTAARASEILFAAGMRPHKKTSEIWEHYKCLNEKQNVECIYCWKVLKRNDSSTKSMWGHMNAYHQDILRDGTTRKKVKRPANGLDFDETPTQPYVKRVRGGAGSSSSLPSMVKMDQKPMLDSMAFLQQLQQSGSLTEADFSSFANGSSLNFLDSLPKSSEVININSGFVKKEEMEEDTENHVEAASSSSSDERIKSETPDTYGSPNTSTTDQNEQLAAFVSSLSNSNPMMFAMLNAAGNSTSSAPAPPKSSTSQQRSSSPPSAHDTSNGSMSPSKVDKDPSSFSLSEGHCAAQLMSMALDLEMTMSYHKRRSEIELCFESNRTVDESQGAASRKVICLTDLGKEIKITERINGSVKDTELWVKTDFNQFHWAIRGKCQKSADASRVPPLVVKPRSSRRSPQPVRRRPPGPRDVSSPTHSFLMRWSFLCTL”, the “soluble on expression in E. coli” value is reported as “not soluble”. For “GDFAYTVGFNMSKNWNKVTNLGANDPIIESPWIKKVGYAIGTFYGYRSDGLLTQEDIDTGNYITDGLVPQAGDIKYVDLDGDGKLTDKDRTYIGCDVPDITYGVNLNLRYKGFELSMFGQGVTGTKVNFSMENAWAFSDYASPRKYHLKRWTVDNPNPNAAYPRIYPRTSKHSTYNQYFSDYWLFNADYFRIKNITFGYSFQKPVLQKLSLEALKLYVAAENPFTIRADHRMEDFDPETASGRGVNTRGTSSIAFGVNLTF”, the “soluble on expression in E. coli” value was “not soluble”. For “MRGSMGAMHVLTLDLAPVTPKDAPLLHRVFHLSPSYFALIGMELPTLEDVVRDLQTLEVDPRRRAFLLFLGQEPVGYLDAKLGYPEAEDATLSLLLIREDHQGRGLGRQALERFAAGLDGVRRLYAVVYGHNPKAKAFFQAQGFRYVKDGGPTLTWYVRPL”, the “soluble on expression in E. coli” value was “soluble”. With “MALLDKLLTPVMNQYKQPINKCLKVLNKKNNKKTGVAKQNACMDKVWGQALAIITKQFVNKVCTAVAKKMNAKEWNCCKTYVVKVVNVTPYKRFNIVK” the “soluble on expression in E. coli” value was “not soluble”. With “MGSDKIHHHHHHMKDEVLIYSWVGEENIGDELILKSIVRMIEKIDDRLKVNVMGTKPKVINKIHNHLGLNRISTYINWTLKSILRAILKHNIFKAILNILCSNKLIIASGGALSDWNPSSTKTIFFLIDLFYFMNRPICMMGVGAGPILHEKSKKRFYNKLKKLEVITVRDEESYELLKSIGLKNVILTSDSVFNICSIIQNKYPEKDVTEKKISFVLAKLFKDNTKELKEYKEEIIKTINRLKKENWKIKLVPFHYSEDIGFLKSINQKCNVEILNSHDMYDTIGELNNENIIVGMRYHSVIMSLVLGKKVIPLIYHPKVYSVARRFEILDIAENVGNGGNWIGSNISSERLLKNIEKLYKSDENTAKNRGKVLRIVKQNDLNNEILARFLRHSNVLEVVSYNVQRH” the “soluble on expression in E. coli” value was “not soluble”. In the case of “MVSSKLATPLSIQGEVIYPDDSGFDAIANIWDGRHLQRPSLIARCLSAGDVAKSVRYACDNGLEISVRSGGHNPNGYATNDGGIVLDLRLMNSIHIDTAGSRARIGGGVISGDLVKEAAKFGLAAVTGMHPKVGFCGLALNGGVGFLTPKYGLASDNILGATLVTATGDVIYCSDDERPELFWAVRGAGPNFGVVTEVEVQLYELPRKMLAGFITWAPSVSELAGLLTSLLDALNEMADHIYPSVFVGVDENRAPSVTVCVGHLGGLDIAERDIARLRGLGRTVSDSIAVRSYDEVVALNAEVGSFEDGMSNLWIDREIAMPNARFAEAIAGNLDKFVSEPASGGSVKLEIEGMPFGNPKRTPARHRDAMGVLALAEWSGAAPGSEKYPELARELDAALLRAGVTTSGFGLLNNNSEVTAEMVAEVYKPEVYSRLAAVKREYDPENRFRHNYNIDPEGS”, the “soluble on expression in E. coli” value is reported as “soluble”. For “MTELSAFPITRKWPAKHPERLQLYSLPTPNGVKVSIMLEEIGLAYEAHKVSFDNDDQLSPEFISLSANNKIPAILDPNGPGGQPLALFESGAILQYLAEKSGQLLSQDPAQRYQTLQWLMFQMGGIGPMFGQVGFFHFFAGKEYEDKRPRDRYVNESKRLLGVLDRHLKGRQWMAEEYSIADIAIFPWVRNLVERYNARDLVGFDQFKEVQRVLANFLERPAVQRGLKIPG”, the “soluble on expression in E. coli” value was “not soluble”.
